Experimental data taken from patent publication US20220145332.

Test system: hsSB (high-solubility Sleeping Beauty transposase, recombinant) (artificial)
Test: cell_activity
Conditions: HeLa, 3 weeks

Substance	activity (% Venus-positive cells) (hsSB added to culture medium, up to 3.31% in iPSCs (FIG. 9))	activity (% Venus-positive cells) (protein electroporation, 20 ug hsSB, maximum efficiency, also active in CHO and mESC)
Venus transposon minicircle (SB LE/RE ends)	< 12	–
Venus transposon plasmid (SB LE/RE ends)	–	42
